Experimental data taken from publication PMC2194224.

Target: purified M22 (Sir22) protein (Streptococcus pyogenes)
Test: radioligand binding

“human C4b-binding protein (C4BP) (from UniProt P04003 49-597; P20851 18-252) (complex)” was tested, and the percent of radiolabeled ligand bound in the absence of antiserum was 25%.
